Experimental data taken from US20140087995A1 (published 2014).
Numbered stars: 1 amine (or outer) side, 2 acyl side, 3 side chain; on linkers, the order of the positions; unused ones are H or OH. Bridge positions count the residues as written; N and C are the ends. * marks the point of attachment. C20 diacid = O=C(O)CCCCCCCCCCCCCCCCCCC(=O)*; γGlu = O=C(O)[C@H](CCC(=O)[*:2])N[*:1]; AEEA = NCCOCCOCC(=O)O

T1: human amylin receptor (amylin 3(a) receptor: human calcitonin receptor plus RAMP-3) (human, UniProt P30988 25-474; O60896 24-148, limits assumed)
T1 sequence (looked up) 1: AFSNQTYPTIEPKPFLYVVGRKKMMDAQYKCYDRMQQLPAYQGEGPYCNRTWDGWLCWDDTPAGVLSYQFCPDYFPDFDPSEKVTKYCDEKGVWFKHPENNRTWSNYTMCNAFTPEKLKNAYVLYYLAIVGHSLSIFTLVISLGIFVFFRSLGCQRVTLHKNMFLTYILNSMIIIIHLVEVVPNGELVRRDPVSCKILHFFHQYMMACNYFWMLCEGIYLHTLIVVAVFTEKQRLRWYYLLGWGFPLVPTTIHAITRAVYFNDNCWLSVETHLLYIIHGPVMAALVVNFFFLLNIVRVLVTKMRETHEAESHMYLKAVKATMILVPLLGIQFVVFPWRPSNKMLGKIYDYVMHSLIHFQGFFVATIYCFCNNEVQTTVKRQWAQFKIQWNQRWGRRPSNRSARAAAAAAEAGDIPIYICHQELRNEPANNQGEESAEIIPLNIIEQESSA
T1 sequence (looked up) 2: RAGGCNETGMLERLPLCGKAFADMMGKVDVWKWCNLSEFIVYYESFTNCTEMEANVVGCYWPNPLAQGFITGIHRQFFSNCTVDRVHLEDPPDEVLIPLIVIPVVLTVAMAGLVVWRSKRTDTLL

T2: human calcitonin receptor (human, UniProt P30988 25-474)
T2 sequence (looked up): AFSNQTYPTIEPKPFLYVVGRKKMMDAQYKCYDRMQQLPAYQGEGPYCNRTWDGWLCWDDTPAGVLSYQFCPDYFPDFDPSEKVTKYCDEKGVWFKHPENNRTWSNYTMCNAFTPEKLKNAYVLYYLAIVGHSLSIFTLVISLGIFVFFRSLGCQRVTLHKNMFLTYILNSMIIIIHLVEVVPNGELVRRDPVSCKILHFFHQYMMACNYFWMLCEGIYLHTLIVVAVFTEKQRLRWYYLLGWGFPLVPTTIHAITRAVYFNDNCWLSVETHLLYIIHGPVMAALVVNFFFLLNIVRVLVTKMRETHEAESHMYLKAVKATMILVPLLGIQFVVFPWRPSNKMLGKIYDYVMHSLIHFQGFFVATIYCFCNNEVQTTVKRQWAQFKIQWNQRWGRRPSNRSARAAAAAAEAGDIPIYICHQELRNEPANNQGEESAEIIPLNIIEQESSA


What was measured:
[1] = molecular target: T1, human amylin receptor (amylin 3(a) …); assay: cell-based or functional assay
[2] = molecular target: T2, human calcitonin receptor; assay: cell-based or functional assay
[3] = molecular target: T1, human amylin receptor (amylin 3(a) …); assay: SPA competition binding, membranes of Amylin 3(a)/CRE-luc BHK cells, displacement of 125I-rat amylin (Assay V)
Protocol: The binding assay was performed using scintillation proximity assay (SPA) beads (RPNQ0001) from PerkinElmer and cell membranes from the Amylin 3(a)/CRE-luc cells (as described in Assay (II)) were used. Membranes were prepared in the following way; the cells were rinsed with PBS and incubated with Versene for approximately 5 min before harvesting. The cells were flushed with PBS and the cell-suspension was centrifuged for 5 min at 1000 rpm. Cells were homogenized (ultrathurrax) in a buffer containing 20 mM Na-HEPES and 10 mM EDTA (pH 7.4) and centrifuged at 20.000 rpm for 15 min. The resulting pellet was resuspended, homogenized and centrifuged (20.000 rpm, 15 min) in a buffer containing 20 mM Na-HEPES and 0.1 mM EDTA (pH 7.4, buffer 2). The resulting pellet was resuspended in buffer 2 and protein concentration was measured (BCA protein Assay, Pierce). The homogenate was kept cold during the whole procedure. The membranes were kept at −80° C. until use. The assay was performed in a 384 well Optiplate (PerkinElmer) in a total volume of 40 ul. Membranes were mixed with SPA beads. Final concentration of membranes 35 ng/μL final and SPA beads was 0.05 mg/well. Test-compounds were dissolved in DMSO and further diluted in assay buffer (50 mM Hepes, pH 7.4, 1 mM CaCl2, 5 mM MgCl₂, 0.1% OA and 0.02% Tween20). […] The final mixture was incubated with shaking at 400 rpm for 120 min at 25° C. prior to centrifugation (1500 rpm, 10 min). Samples were analyzed on TopCounter™ (Packard). The IC₅₀ was calculated using (one site binding competition analysis) GraphPad Prism5 as a measure of receptor affinity.

Row | Binder | hAmylin-R funct. EC50 [1] | Ratio hCT/hAmylin funct. (hCTR EC50 against hAmylin-R EC50) [2] | hCTR funct. EC50 [2] | IC50 [3]
1 | KCNTATCATQRLAEFLRHSSPNFGAIPSSTNVGSNTY (C20 diacid-gGlu on the alpha amino group of the N-terminal residue; Cys2-Cys7 disulfide and C-terminal amide as in human amylin, also called compound 9) [N^α1-[(4S)-4-carboxy-4-(19-carboxynonadecanoylamino)butanoyl]-[Glu14,Arg17,Pro21,Pro27]-h-amylin] | 175 pM | 7.4 | 1290 pM | 0.143 nM
2 | KCNTATCATQRLANFLRHSSPNFGAIPSSTNVGSKTY (C20 diacid-gGlu on the alpha amino group of the N-terminal residue; Cys2-Cys7 disulfide and C-terminal amide as in human amylin, also called compound 34) [N^α1-[(4S)-4-carboxy-4-(19-carboxynonadecanoylamino)butanoyl]-[Arg17,Pro21,Pro27,Lys35]-h-amylin] | 313 pM | 8.4 | 2620 pM | 1.14 nM
3 | {C20 diacid-γGlu}-KCNTATCATQRLADFLRHSSPNFGAIPSSTNVGSNTP-NH2 (disulfide 2-7; SMILES CC[C@H](C)[C@H](NC(=O)[C@H](C)NC(=O)CNC(=O)[C@H](Cc1ccccc1)NC(=O)[C@H](CC(N)=O)NC(=O)[C@@H]1CCCN1C(=O)[C@H](CO)NC(=O)[C@H](CO)NC(=O)[C@H](Cc1c[nH]cn1)NC(=O)[C@H](CCCNC(=N)N)NC(=O)[C@H](CC(C)C)NC(=O)[C@H](Cc1ccccc1)NC(=O)[C@H](CC(=O)O)NC(=O)[C@H](C)NC(=O)[C@H](CC(C)C)NC(=O)[C@H](CCCNC(=N)N)NC(=O)[C@H](CCC(N)=O)NC(=O)[C@@H](NC(=O)[C@H](C)NC(=O)[C@@H]1CSSC[C@H](NC(=O)[C@H](CCCCN)NC(=O)CC[C@H](NC(=O)CCCCCCCCCCCCCCCCCCC(=O)O)C(=O)O)C(=O)N[C@@H](CC(N)=O)C(=O)N[C@@H]([C@@H](C)O)C(=O)N[C@@H](C)C(=O)N[C@@H]([C@@H](C)O)C(=O)N1)[C@@H](C)O)C(=O)N1CCC[C@H]1C(=O)N[C@@H](CO)C(=O)N[C@@H](CO)C(=O)N[C@H](C(=O)N[C@@H](CC(N)=O)C(=O)N[C@H](C(=O)NCC(=O)N[C@@H](CO)C(=O)N[C@@H](CC(N)=O)C(=O)N[C@H](C(=O)N1CCC[C@H]1C(N)=O)[C@@H](C)O)C(C)C)[C@@H](C)O, also called compound 10) | 72 pM | 1 | 70 pM | 0.082 nM
4 | {C20 diacid-γGlu-AEEA-AEEA}-KCNTATCATQRLAEFLRHSSPNFGAIPSSTNVGSNTP-NH2 (disulfide 2-7; SMILES CC[C@H](C)[C@H](NC(=O)[C@H](C)NC(=O)CNC(=O)[C@H](Cc1ccccc1)NC(=O)[C@H](CC(N)=O)NC(=O)[C@@H]1CCCN1C(=O)[C@H](CO)NC(=O)[C@H](CO)NC(=O)[C@H](Cc1c[nH]cn1)NC(=O)[C@H](CCCNC(=N)N)NC(=O)[C@H](CC(C)C)NC(=O)[C@H](Cc1ccccc1)NC(=O)[C@H](CCC(=O)O)NC(=O)[C@H](C)NC(=O)[C@H](CC(C)C)NC(=O)[C@H](CCCNC(=N)N)NC(=O)[C@H](CCC(N)=O)NC(=O)[C@@H](NC(=O)[C@H](C)NC(=O)[C@@H]1CSSC[C@H](NC(=O)[C@H](CCCCN)NC(=O)COCCOCCNC(=O)COCCOCCNC(=O)CC[C@H](NC(=O)CCCCCCCCCCCCCCCCCCC(=O)O)C(=O)O)C(=O)N[C@@H](CC(N)=O)C(=O)N[C@@H]([C@@H](C)O)C(=O)N[C@@H](C)C(=O)N[C@@H]([C@@H](C)O)C(=O)N1)[C@@H](C)O)C(=O)N1CCC[C@H]1C(=O)N[C@@H](CO)C(=O)N[C@@H](CO)C(=O)N[C@H](C(=O)N[C@@H](CC(N)=O)C(=O)N[C@H](C(=O)NCC(=O)N[C@@H](CO)C(=O)N[C@@H](CC(N)=O)C(=O)N[C@H](C(=O)N1CCC[C@H]1C(N)=O)[C@@H](C)O)C(C)C)[C@@H](C)O, also called compound 20) | 80 pM | 3.6 | 285 pM | 0.217 nM
5 | {C20 diacid-γGlu}-KCNTATCATQRLANFLRHSSPNFGAIPSSTNVGPETY-NH2 (disulfide 2-7; SMILES CC[C@H](C)[C@H](NC(=O)[C@H](C)NC(=O)CNC(=O)[C@H](Cc1ccccc1)NC(=O)[C@H](CC(N)=O)NC(=O)[C@@H]1CCCN1C(=O)[C@H](CO)NC(=O)[C@H](CO)NC(=O)[C@H](Cc1c[nH]cn1)NC(=O)[C@H](CCCNC(=N)N)NC(=O)[C@H](CC(C)C)NC(=O)[C@H](Cc1ccccc1)NC(=O)[C@H](CC(N)=O)NC(=O)[C@H](C)NC(=O)[C@H](CC(C)C)NC(=O)[C@H](CCCNC(=N)N)NC(=O)[C@H](CCC(N)=O)NC(=O)[C@@H](NC(=O)[C@H](C)NC(=O)[C@@H]1CSSC[C@H](NC(=O)[C@H](CCCCN)NC(=O)CC[C@H](NC(=O)CCCCCCCCCCCCCCCCCCC(=O)O)C(=O)O)C(=O)N[C@@H](CC(N)=O)C(=O)N[C@@H]([C@@H](C)O)C(=O)N[C@@H](C)C(=O)N[C@@H]([C@@H](C)O)C(=O)N1)[C@@H](C)O)C(=O)N1CCC[C@H]1C(=O)N[C@@H](CO)C(=O)N[C@@H](CO)C(=O)N[C@H](C(=O)N[C@@H](CC(N)=O)C(=O)N[C@H](C(=O)NCC(=O)N1CCC[C@H]1C(=O)N[C@@H](CCC(=O)O)C(=O)N[C@H](C(=O)N[C@@H](Cc1ccc(O)cc1)C(N)=O)[C@@H](C)O)C(C)C)[C@@H](C)O, also called compound 29) | 99 pM | 8.7 | 857 pM | 0.577 nM
6 | KCNTATCATQRLANFLRHSSPNFGAIPSSTNVGSNTY (C20 diacid-gGlu-2xOEG on the alpha amino group of the N-terminal residue; Cys2-Cys7 disulfide and C-terminal amide as in human amylin, also called compound 24) | 433 pM | 23.1 | 10000 pM | 1.14 nM
7 | {C20 diacid-γGlu}-KCNTATCATQRLAEFLRHSSPNFGAIPSSTNVGSDTP-NH2 (disulfide 2-7; SMILES CC[C@H](C)[C@H](NC(=O)[C@H](C)NC(=O)CNC(=O)[C@H](Cc1ccccc1)NC(=O)[C@H](CC(N)=O)NC(=O)[C@@H]1CCCN1C(=O)[C@H](CO)NC(=O)[C@H](CO)NC(=O)[C@H](Cc1c[nH]cn1)NC(=O)[C@H](CCCNC(=N)N)NC(=O)[C@H](CC(C)C)NC(=O)[C@H](Cc1ccccc1)NC(=O)[C@H](CCC(=O)O)NC(=O)[C@H](C)NC(=O)[C@H](CC(C)C)NC(=O)[C@H](CCCNC(=N)N)NC(=O)[C@H](CCC(N)=O)NC(=O)[C@@H](NC(=O)[C@H](C)NC(=O)[C@@H]1CSSC[C@H](NC(=O)[C@H](CCCCN)NC(=O)CC[C@H](NC(=O)CCCCCCCCCCCCCCCCCCC(=O)O)C(=O)O)C(=O)N[C@@H](CC(N)=O)C(=O)N[C@@H]([C@@H](C)O)C(=O)N[C@@H](C)C(=O)N[C@@H]([C@@H](C)O)C(=O)N1)[C@@H](C)O)C(=O)N1CCC[C@H]1C(=O)N[C@@H](CO)C(=O)N[C@@H](CO)C(=O)N[C@H](C(=O)N[C@@H](CC(N)=O)C(=O)N[C@H](C(=O)NCC(=O)N[C@@H](CO)C(=O)N[C@@H](CC(=O)O)C(=O)N[C@H](C(=O)N1CCC[C@H]1C(N)=O)[C@@H](C)O)C(C)C)[C@@H](C)O, also called compound 11) | 120 pM | 0.9 | 112 pM | 0.105 nM
